Laboratory results: patent publication US20100291106A1 (Novartis, published 2010)

Legend:
human C3d = molecular target: T1, human C3d (human, UniProt P01024 1002-1303); experiment: cross reactivity, ELISA on C3d, anti-His detection
T1 construct: domain: C3d

[1] = molecular target: T2, cynomolgus complement C3b protein (cynomolgus monkey (Macaca fascicularis)); experiment: cell-based or functional assay
[2] = molecular target: T3, human complement C3b protein (human, UniProt P01024 23-667; P01024 749-1663); experiment: cell-based or functional assay
human C5 = molecular target: T4, human C5 (human, UniProt P01031 19-673; P01031 678-1676); experiment: cross reactivity, capture ELISA with anti-C5 capture antibody, anti-His detection
T4 construct: Captured by an anti-C5 antibody in the ELISA

[3] = molecular target: T2, cynomolgus complement C3b protein; experiment: SPR (Biacore), C3b captured by anti-C3d antibody, Fab as analyte
[4] = molecular target: T3, human complement C3b protein; experiment: as above
[5] = molecular target: T2, cynomolgus complement C3b protein; experiment: solution equilibrium titration (SET), ECL detection, Fab
[6] = molecular target: T3, human complement C3b protein; experiment: as above

T3 sequence (P01024 23-667 P314L, chain 1 of 2): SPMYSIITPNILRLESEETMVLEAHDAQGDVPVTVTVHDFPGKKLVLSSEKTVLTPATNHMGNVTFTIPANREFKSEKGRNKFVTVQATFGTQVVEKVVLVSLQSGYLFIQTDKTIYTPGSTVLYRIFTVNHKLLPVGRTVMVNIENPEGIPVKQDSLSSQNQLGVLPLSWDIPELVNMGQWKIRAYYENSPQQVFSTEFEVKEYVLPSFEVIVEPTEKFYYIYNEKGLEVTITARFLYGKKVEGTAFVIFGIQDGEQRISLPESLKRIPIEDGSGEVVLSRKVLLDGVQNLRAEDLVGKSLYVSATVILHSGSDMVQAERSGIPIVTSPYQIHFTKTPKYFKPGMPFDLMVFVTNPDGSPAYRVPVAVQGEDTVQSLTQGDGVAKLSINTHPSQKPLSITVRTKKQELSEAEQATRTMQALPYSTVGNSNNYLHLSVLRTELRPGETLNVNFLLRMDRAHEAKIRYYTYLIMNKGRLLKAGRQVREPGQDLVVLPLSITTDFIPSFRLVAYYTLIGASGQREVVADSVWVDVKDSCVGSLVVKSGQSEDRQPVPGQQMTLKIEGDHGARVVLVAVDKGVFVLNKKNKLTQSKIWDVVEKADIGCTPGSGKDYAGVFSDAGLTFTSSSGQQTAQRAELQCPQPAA
T3 sequence (P01024 749-1663, chain 2 of 2): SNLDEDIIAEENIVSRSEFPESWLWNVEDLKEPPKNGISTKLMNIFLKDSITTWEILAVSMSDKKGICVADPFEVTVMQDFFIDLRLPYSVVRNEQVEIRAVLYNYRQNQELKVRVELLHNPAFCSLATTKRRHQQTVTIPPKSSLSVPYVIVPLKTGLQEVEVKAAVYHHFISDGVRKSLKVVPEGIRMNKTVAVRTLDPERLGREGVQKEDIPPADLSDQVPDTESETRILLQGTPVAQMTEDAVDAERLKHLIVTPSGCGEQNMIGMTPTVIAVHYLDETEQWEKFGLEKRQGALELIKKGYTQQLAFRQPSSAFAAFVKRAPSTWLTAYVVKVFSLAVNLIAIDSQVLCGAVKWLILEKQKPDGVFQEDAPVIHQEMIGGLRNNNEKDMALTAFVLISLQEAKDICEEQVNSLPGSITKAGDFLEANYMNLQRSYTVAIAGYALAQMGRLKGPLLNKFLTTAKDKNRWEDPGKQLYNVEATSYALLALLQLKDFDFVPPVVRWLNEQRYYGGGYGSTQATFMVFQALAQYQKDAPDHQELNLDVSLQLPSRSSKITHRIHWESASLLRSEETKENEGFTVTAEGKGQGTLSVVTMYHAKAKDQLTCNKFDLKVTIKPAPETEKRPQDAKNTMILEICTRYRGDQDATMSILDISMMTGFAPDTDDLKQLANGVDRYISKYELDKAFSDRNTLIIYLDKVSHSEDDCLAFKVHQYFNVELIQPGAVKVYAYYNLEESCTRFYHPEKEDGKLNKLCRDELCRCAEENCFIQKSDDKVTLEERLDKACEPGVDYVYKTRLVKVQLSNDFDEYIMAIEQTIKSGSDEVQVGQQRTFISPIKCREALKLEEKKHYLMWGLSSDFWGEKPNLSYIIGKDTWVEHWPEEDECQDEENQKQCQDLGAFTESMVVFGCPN
T4 sequence (P01031 19-673 limits assumed, chain 1 of 2): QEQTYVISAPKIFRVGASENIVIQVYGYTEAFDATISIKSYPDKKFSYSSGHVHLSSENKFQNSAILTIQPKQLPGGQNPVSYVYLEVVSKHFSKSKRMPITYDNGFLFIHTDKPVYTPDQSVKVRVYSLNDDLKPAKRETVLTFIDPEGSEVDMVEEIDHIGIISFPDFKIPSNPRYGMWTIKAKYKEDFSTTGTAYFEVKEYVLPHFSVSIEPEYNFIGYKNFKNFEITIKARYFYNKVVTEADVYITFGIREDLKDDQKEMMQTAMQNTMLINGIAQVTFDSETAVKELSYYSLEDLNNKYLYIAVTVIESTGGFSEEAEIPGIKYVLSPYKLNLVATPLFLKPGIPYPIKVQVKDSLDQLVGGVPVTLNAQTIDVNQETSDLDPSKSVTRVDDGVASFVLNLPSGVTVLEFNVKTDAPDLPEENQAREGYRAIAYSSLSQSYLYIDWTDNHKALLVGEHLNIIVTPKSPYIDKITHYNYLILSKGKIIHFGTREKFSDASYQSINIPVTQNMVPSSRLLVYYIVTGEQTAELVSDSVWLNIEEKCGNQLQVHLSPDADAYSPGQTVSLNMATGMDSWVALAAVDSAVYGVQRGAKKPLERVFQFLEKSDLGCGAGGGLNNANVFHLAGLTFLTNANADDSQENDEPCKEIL
T4 sequence (P01031 678-1676 limits assumed, chain 2 of 2): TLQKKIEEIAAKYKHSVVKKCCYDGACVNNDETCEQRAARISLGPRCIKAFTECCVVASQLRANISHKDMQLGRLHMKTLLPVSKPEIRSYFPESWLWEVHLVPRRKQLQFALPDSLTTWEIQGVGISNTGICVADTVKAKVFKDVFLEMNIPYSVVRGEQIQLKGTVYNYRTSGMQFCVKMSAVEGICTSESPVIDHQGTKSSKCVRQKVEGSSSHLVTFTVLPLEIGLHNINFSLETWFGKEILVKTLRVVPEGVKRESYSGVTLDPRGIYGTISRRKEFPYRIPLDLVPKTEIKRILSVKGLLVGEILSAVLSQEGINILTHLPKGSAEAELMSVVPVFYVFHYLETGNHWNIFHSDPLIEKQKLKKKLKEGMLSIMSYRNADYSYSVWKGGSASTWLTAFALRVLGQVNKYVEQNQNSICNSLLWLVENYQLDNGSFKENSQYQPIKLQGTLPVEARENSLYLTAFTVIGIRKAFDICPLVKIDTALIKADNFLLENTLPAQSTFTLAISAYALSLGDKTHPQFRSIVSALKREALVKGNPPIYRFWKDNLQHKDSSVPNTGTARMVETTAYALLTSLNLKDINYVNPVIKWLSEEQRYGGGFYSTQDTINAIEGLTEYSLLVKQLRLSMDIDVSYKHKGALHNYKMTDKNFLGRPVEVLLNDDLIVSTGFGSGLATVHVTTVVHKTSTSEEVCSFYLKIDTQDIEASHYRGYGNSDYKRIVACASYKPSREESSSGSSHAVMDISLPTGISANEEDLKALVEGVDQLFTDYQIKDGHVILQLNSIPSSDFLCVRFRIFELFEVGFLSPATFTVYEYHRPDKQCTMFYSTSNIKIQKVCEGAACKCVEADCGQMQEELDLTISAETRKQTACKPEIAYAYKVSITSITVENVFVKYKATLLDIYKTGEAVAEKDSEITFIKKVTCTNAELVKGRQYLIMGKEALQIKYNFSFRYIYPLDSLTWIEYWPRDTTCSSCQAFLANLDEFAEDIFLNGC
T1 sequence (P01024 1002-1303 limits assumed): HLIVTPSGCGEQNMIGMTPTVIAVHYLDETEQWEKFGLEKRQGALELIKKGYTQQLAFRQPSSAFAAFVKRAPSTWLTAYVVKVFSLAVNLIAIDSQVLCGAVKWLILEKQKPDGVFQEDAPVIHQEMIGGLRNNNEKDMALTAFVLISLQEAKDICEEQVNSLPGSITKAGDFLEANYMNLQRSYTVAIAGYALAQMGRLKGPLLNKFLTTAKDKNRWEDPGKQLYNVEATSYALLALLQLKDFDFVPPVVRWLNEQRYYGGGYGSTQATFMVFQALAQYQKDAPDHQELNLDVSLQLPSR

B1: MOR9610 Fab format (Fab, V domains shown)
VH: EVQLVQSGAEVKKPGSSVKVSCKASGGTFSSYTFSWVRQAPGQGLEWMGNILPIFGDANYAQKFQGRVTITADESTSTAYMELSSLRSEDTAVYYCARNKGAFYYMSTYPSLDVWGQGTLVTVSS
VL: DIQMTQSPSSLSASVGDRVTITCRASQNINYYLNWYQQKPGKAPKLLIYDAFSLQSGVPSRFSGSGSGTDFTLTISSLQPEDFATYYCQQSIAVPPFTFGQGTKVEIK
For B1, the binding result (human C3d) was “no binding”, the “C3b Dep (nM), cyno serum, IC50” value [1] was 39 nM and the “HA (nM), 10% cyno serum, IC50” value [1] was 64 nM. The “MAC Dep (nM), cyno serum, IC50” value [1] was 18 nM, the “C3a (nM), human, inhibition of C3a generation” value [2] was 66 nM and the “C3b Dep (nM), human serum, IC50” value [2] was 20 nM. The “C5a (nM), human, inhibition of C5a generation” value [2] was 34 nM, the “HA (nM), 10% human serum, IC50” value [2] was 63 nM and the “MAC Dep (nM), human serum, IC50” value [2] was 4 nM. For the same binder, the binding result (human C5) was “no binding”, the Kd [3] was 0.07 nM and the Kd [4] was 0.114 nM. It also gave a Kd [5] of 0.006 nM and a Kd [6] of 0.018 nM.
